In paper doi:10.1101/2024.04.19.590217 (bioRxiv, 2024):

Molecular target: the molecule itself
Experiment: cryo-EM structure

B1: Simian Virus 40 (SV40) Large Tumour Antigen (LTag) (enzyme)
chain: MDKVLNREESLQLMDLLGLERSAWGNIPLMRKAYLKKCKEFHPDKGGDEEKMKKMNTLYKKMEDGVKYAHQPDFGGFWDATEIPTYGTDEWEQWWNAFNEENLFCSEEMPSSDDEATADSQHSTPPKKKRKVEDPKDFPSELLSFLSHAVFSNRTLACFAIYTTKEKAALLYKKIMEKYSVTFISRHNSYNHNILFFLTPHRHRVSAINNYAQKLCTFSFLICKGVNKEYLMYSALTRDPFSVIEESLPGGLKEHDFNPEEAEETKQVSWKLVTEYAMETKCDDVLLLLGMYLEFQYSFEMCLKCIKKEQPSHYKYHEKHYANAAIFADSKNQKTICQQAVDTVLAKKRVDSLQLTREQMLTNRFNDLLDRMDIMFGSTGSADIEEWMAGVAWLHCLLPKMDSVVYDFLKCMVYNIPKKRYWLFKGPIDSGKTTLAAALLELCGGKALNVNLPLDRLNFELGVAIDQFLVVFEDVKGTGGESRDLPSGQGINNLDNLRDYLDGSVKVNLEKKHLNKRTQIFPPGIVTMNEYSVPKTLQARFVKQIDFRPKDYLKHCLERSEFLLEKRIIQSGIALLLMLIWYRPVAEFAQSIQSRIVEWKERLDKEFSLSVYQKMKFNVAMGIGVLDWLRNSDDDDEDSQENADKNEDGGEKNMEDSGHETGIDSQSQGSFQAPQSSQSVHDHNQPYHICRGFTCFKKPPTPPPEPET
Q: B1 was tested. Which “stoichiometry N” value did it give?
A: The value was 6.
